Data published in patent US9598479B2, “Nanoparticle-peptide compositions” (Midatech Ltd., priority 2011, dated 2017).
Numbered stars: 1 amine (or outer) side, 2 acyl side, 3 side chain; on linkers, the order of the positions; unused ones are H or OH. Square brackets hold non-standard residues; d marks the D form. Ends that are not written are not given here. Cysteamide = C(CS[*:3])N[*:1]; Mpa = O=C(O)CCS

Experiments:
[1] = Aggregation and solubilisation of nanoparticle preparations; type: physicochemical; details: for solubility of aggregates in alkali: 300 mM NaOH; for aggregation of NP after repeat production: 75% methanol in the synthesis stage; for aggregation of NP after production: first production (95% methanol); for solubility of aggregates: water, 10% acetic acid, PBS, DMSO or DMF
Protocol: The following method was used; 1.5 μmole peptide was dissolved in 2 ml methanol, followed by the addition of 30 μmole GlcC2 in 200 μl methanol, and 116 μl of aqueous gold chloride containing 10 μmole Au. The sample was vortexed for 30 sec, shaken for approximately 5 min and then under rapid vortexing for a total of 30 sec 200 μl of 1M NaBH4 was added, tubes were sealed and then gently shaken for 1.5 h.
Samples were bench spun the supernatant removed and the dark pellet dissolved in 2 ml water, and then transferred to a 10 kDa vivaspin for a total of 4 times 2 ml water washes each of 8 min at 5 Krpm.
Nanoparticles (NPs) were removed from the vivaspins and made up to 500 μl with water, they were then subjected to 15 Krpm bench spin to remove any large aggregates.
NP's 2-5 were produced by a variation using 75% methanol not 95% in the synthesis stage.

[2] = tested on: B3Z (OVA peptide specific T cell line); assay: B3Z T cell activation (β-galactosidase) measure of antigen presentation; type: cell-based, mouse; details: for processing and presentation of SIINFEKL from GNP, CTL-based method: LKb cells pulsed 2 h with GNP equivalent to 1, 0.1 or 0.01 ug/mL peptide, overnight co-culture with B3Z, FIG. 1E
Protocol: (§1) Next, GNPs were pulsed to the equivalent of 1 ug/mL peptide (Green), 0.1 ug/mL (Blue), or 0.01 ug/mL (Red). After two hours, cells were washed, and subjected to (A-D) flow cytometric labelling with 25.D1.16 (Angel) antibody, or (E) combined with B3Z CTL for overnight co-culture. The next day, cells were lysed and Beta-galactosidase activity was measured.
Another form of epitope-specific antigen presentation is the measurement of T cell activation by the MHCI peptide complex. Here, we used B3Z (OVA peptide specific T cell line), which recognizes […] (SEQ ID NO: 2) the context of K^b. As a convenient measure, this T cell line contains β-galactosidase cloned with the NFAT promoter. Upon peptide recognition and T cell activation, β-galactosidase is expressed and conversion of a detectible substrate serves as an excellent measure of antigen presentation to T cells.
To evaluate this method, we performed a similar experiment as above. LK^b cells were pulsed with […] (SEQ ID NO: 2) peptide, washed, and then co-incubated with B3Z T cell line overnight. The next day, cells were lysed and β-galactosidase was measured using a luminescent substrate. As expected, the resolution of this method was similar to the previous method with the limit of detection at approximately 5 ng/mL.
The […]:Kb-specific T hybridoma (B3Z) (SEQ ID NO: 2) expresses (β-galactosidase upon recognition of peptide-MHC class I complexes and has been described previously (3, 6). T cell hybridomas were maintained in complete RPMI plus 10% FCS and 0.05 mM 2-ME. Activation was measured using the luminescent substrate Galactolight Plus (Applied Biosystems, Foster City, Calif.) according to the manufacturer's instructions. Light intensity was measured using a TopCount NXT plate reader (Perkin Elmer, Waltham, Mass.).
(§2) To assay […] (SEQ ID NO: 2) presentation using a flow cytometric or cell-based method, we pulsed LK^b cells in a 15 mL conical at 37° C. for 2 hrs. Following this incubation, cells were washed once with PBS and then subjected to detection using flow cytometry or added to B3Z cells at an effector to target ratio of 1:1.
(§3) […] (SEQ ID NO: 2), an epitope derived from ovalbumin that is presented in the context of the murine MHCI molecule H-2 Kb, was measured using two methods. One method utilized a TCR-like antibody termed 25.D1.16, also referred to as “Angel”, that recognize […] (SEQ ID NO: 2)/MHCI complex. In addition, we assessed presentation using the B3Z, […] (SEQ ID NO: 2) peptide specific CTL hybridoma, which expresses β-galactosidase under the NFAT (CTL signaling molecule) promoter, which upon activation express beta-gal measured by a light emitting substrate.

LK^b cells = assay: Flow cytometry measure of […] presentation (25.D1.16 antibody); type: cell-based, mouse; details: for processing and presentation of SIINFEKL from GNP, flow cytometric method: LKb cells pulsed 2 h with GNP equivalent to 1, 0.1 or 0.01 ug/mL peptide, FIG. 1A-D
Protocol: as §1
In order to analyze epitope linkage to nanoparticles, we first optimized a readout assay for the presentation of the epitope released from the nanoparticle. For this purpose, […] (SEQ ID NO: 2) presentation in LK^b cells was evaluated. As mentioned earlier, more than one reagent exists. Of the two methods tested, one is flow cytometry-based, while the other is cell-based. The flow cytometry-based method begins with pulsing LK^b cells with differing amounts of […] (SEQ ID NO: 2) peptide. After allowing enough time for peptide binding to surface K^b molecules, cells were washed and incubated with the 25.D1.16 antibody which is specific to the […]:K^b (SEQ ID NO: 2) complex. Next, the cells were secondarily labelled and subjected to flow cytometry analysis using unpulsed cells as the background reading.
LK^b cells were treated with varying amounts of […] (SEQ ID NO: 2) peptides. […] Cells were then washed two times in PBS and incubated for 30 min on ice with FITC-labeled goat anti-mouse IgG secondary antibody (Caltag Laboratories, Burlingham, Calif.). Finally, cells were washed two times with PBS and resuspended in PBS+0.1% BSA for flow cytometry on a Guava EasyCyte Plus Flow Cytometer (Millipore, Billerica, Mass.) and analyzed using the accompanying software.
as §2, §3

| Substance | solubility of aggregates in alkali [1] | aggregation of NP after repeat production [1] | aggregation of NP after production [1] | solubility of aggregates [1] | processing and presentation of SIINFEKL from GNP, CTL-based method [2] | processing and presentation of SIINFEKL from GNP, flow cytometric method (LK^b cells) | other results |
| --- | --- | --- | --- | --- | --- | --- | --- |
| NP 3: gold nanoparticle with GlcC2 ligands and peptide ligand 3, FLSIINFEKL-N—(CH2)2-SH (FLSIINFEKL-Cysteamide; also: on gold nanoparticle with GlcC2 ligands) | total NP solubilisation | formed aggregates | large near complete aggregation | not soluble |  |  |  |
| NP2: gold nanoparticle with GlcC2 ligands and peptide ligand 2, SIINFEKL-N—(CH2)2-SH |  | ‘normal’ NP |  |  |  |  |  |
| GNP 8: gold nanoparticle with GlcC2 ligands and peptide ligand 8, HS(CH2)2-CONH-FLAAYSIINFEKL ([Mpa]FLAAYSIINFEKL; numbers in words are those of the source; also: on gold nanoparticle with GlcC2 ligands) |  |  |  |  | good processing and presentation | good processing and presentation | presentation from preparations lacking free peptide, B3Z assay ([2]; Sephadex G-50 purified new GNP vs old GNP, overnight incubation, FIG. 3F): confirmed; presentation from preparations lacking free peptide, flow cytometry (LK^b cells; Sephadex G-50 purified new GNP vs old GNP, FIGS. 3C-E): work just as well as those containing peptide |
| NP 4: gold nanoparticle with GlcC2 ligands and peptide ligand 4, FLAAYSIINFEKL-N—(CH2)2-SH (FLAAYSIINFEKL-Cysteamide; also: on gold nanoparticle with GlcC2 ligands) | total NP solubilisation | formed aggregates | large near complete aggregation | not soluble |  |  |  |
| GNP 12: gold nanoparticle with GlcC2 ligands and peptide ligand 12, HS—(CH2)10-(CH2OCH2)7-CONH-FLAAYSIINFEKL ({HS‑(CH2)10‑(CH2OCH2)7‑CO}-FLAAYSIINFEKL; also: on gold nanoparticle with GlcC2 ligands) |  |  |  |  | good processing and presentation | good processing and presentation |  |
| SIINFEKL (listed as Gallus gallus) [reference compound] |  |  |  |  |  |  | limit of detection ([2]; LK^b cells pulsed with free SIINFEKL peptide, co-incubated with B3Z overnight, luminescent substrate): approximately 5 ng/mL; lowest pulse concentration at which surface SIINFEKL:K^b complexes were detected (LK^b cells; LK^b cells pulsed with free SIINFEKL peptide, unpulsed cells as background): 5 ng/mL |
